Measured values as given in patent US20210115100A1.

Key:
Assay in all cases: cell-based or functional assay
[1] = biological target: human mature BMP7 protein variant F9 (SEQ ID NO: 8) (human) (UniProt P18075)
[2] = biological target: human pro-BMP7 protein variant F9 (human) (UniProt P18075)
[3] = biological target: wild type human mature BMP7 (SEQ ID NO: 2) (human) (UniProt P18075)
[4] = biological target: wild type human pro-BMP7 (human) (UniProt P18075)
Sequence of wild type human pro-BMP7 (human) (P18075 293-431, chain 1 of 2): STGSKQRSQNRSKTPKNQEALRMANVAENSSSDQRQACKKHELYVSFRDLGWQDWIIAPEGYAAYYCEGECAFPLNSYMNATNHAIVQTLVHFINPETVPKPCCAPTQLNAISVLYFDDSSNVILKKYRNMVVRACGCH
Sequence of wild type human pro-BMP7 (human) (P18075 other isoform, or with tags, fused parts or gaps, chain 2 of 2): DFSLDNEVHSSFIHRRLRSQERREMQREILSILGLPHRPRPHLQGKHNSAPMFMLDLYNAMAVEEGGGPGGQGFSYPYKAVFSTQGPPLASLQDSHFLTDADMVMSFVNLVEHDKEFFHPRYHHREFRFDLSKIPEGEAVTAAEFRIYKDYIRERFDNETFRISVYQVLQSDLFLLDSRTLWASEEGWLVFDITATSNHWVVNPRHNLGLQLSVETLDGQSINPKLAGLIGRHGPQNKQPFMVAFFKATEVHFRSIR

Sequence of Follistatin (P19883 30-344): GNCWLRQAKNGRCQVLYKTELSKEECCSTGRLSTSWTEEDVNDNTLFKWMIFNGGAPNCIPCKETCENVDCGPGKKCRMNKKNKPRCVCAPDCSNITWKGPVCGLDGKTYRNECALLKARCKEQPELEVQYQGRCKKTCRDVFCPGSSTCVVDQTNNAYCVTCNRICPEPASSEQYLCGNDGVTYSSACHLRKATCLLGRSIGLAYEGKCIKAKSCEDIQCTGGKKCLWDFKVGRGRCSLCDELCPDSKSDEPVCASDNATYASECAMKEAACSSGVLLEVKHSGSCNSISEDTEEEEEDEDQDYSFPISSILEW
Sequence of human mature BMP7 protein variant F9 (SEQ ID NO: 8) (human) (P18075 other isoform, or with tags, fused parts or gaps mutant): as the sequence (P18075 293-431, chain 1 of 2) above, with Y65G, I86L, F93V, N110G, Y128W counted along it
Sequence of human pro-BMP7 protein variant F9 (human) (P18075 other isoform, or with tags, fused parts or gaps mutant, chain 1 of 2): as the sequence (P18075 293-431, chain 1 of 2) above, with Y65G, I86L, F93V, N110G, Y128W counted along it
Sequence of human pro-BMP7 protein variant F9 (human) (P18075 other isoform, or with tags, fused parts or gaps mutant, chain 2 of 2): as the sequence (P18075 other isoform, or with tags, fused parts or gaps, chain 2 of 2) above
Sequence of wild type human mature BMP7 (SEQ ID NO: 2) (human) (P18075 293-431): as the sequence (P18075 293-431, chain 1 of 2) above

% inhibition, 0.01X molar excess of inhibitor (hepcidin promoter luciferase, Hep3B2 HepPro luc cells) [1] | % inhibition, 0.1X molar excess of inhibitor (hepcidin promoter luciferase, Hep3B2 HepPro luc cells) [1] | % inhibition, 1X molar excess of inhibitor (hepcidin promoter luciferase, Hep3B2 HepPro luc cells) [1] | % inhibition, 10X molar excess of inhibitor (hepcidin promoter luciferase, Hep3B2 HepPro luc cells) [1] | % inhibition, 0.1X molar excess of inhibitor (hepcidin promoter luciferase, Hep3B2 HepPro luc cells) [2] | % inhibition, 1X molar excess of inhibitor (hepcidin promoter luciferase, Hep3B2 HepPro luc cells) [2] | % inhibition, 10X molar excess of inhibitor (hepcidin promoter luciferase, Hep3B2 HepPro luc cells) [2] | % inhibition, 100X molar excess of inhibitor (hepcidin promoter luciferase, Hep3B2 HepPro luc cells) [2] | % inhibition, 0.1X molar excess of inhibitor (hepcidin promoter luciferase, Hep3B2 HepPro luc cells) [3] | % inhibition, 1X molar excess of inhibitor (hepcidin promoter luciferase, Hep3B2 HepPro luc cells) [3] | % inhibition, 10X molar excess of inhibitor (hepcidin promoter luciferase, Hep3B2 HepPro luc cells) [3] | % inhibition, 100X molar excess of inhibitor (hepcidin promoter luciferase, Hep3B2 HepPro luc cells) [3] | % inhibition, 0.1X molar excess of inhibitor (hepcidin promoter luciferase, Hep3B2 HepPro luc cells) [4] | % inhibition, 1X molar excess of inhibitor (hepcidin promoter luciferase, Hep3B2 HepPro luc cells) [4] | % inhibition, 10X molar excess of inhibitor (hepcidin promoter luciferase, Hep3B2 HepPro luc cells) [4] | % inhibition, 100X molar excess of inhibitor (hepcidin promoter luciferase, Hep3B2 HepPro luc cells) [4] | Substance
-1.5% | -3.2% | -1% | 9% | 3.5% | 2.4% | 8.8% | 24.9% | -13.7% | 49% | 69.5% | 71.9% | 8.9% | 55.9% | 87.5% | 88.2% | Chordin-like 2
3.7% | 6.8% | 5.2% | 5.6% | -5.9% | -5.3% | -1.3% | -17.7% | -13.1% | -9.2% | 21.3% | 70.9% | -15.1% | -2.2% | 18.9% | 76.5% | Chordin
3.9% | 10.6% | 10% | 23.8% | -2.6% | -4.3% | 11.7% | 22.5% | -16.6% | -11.9% | 21.1% | 54.7% | -10.4% | 5.9% | 29.5% | 79.8% | Follistatin
